{"source": "paper PMC11430116", "origin": "cited, not measured here", "molecular_target": "VDAC1 (Homo sapiens) (UniProt P21796)", "sequence (P21796 2-283)": "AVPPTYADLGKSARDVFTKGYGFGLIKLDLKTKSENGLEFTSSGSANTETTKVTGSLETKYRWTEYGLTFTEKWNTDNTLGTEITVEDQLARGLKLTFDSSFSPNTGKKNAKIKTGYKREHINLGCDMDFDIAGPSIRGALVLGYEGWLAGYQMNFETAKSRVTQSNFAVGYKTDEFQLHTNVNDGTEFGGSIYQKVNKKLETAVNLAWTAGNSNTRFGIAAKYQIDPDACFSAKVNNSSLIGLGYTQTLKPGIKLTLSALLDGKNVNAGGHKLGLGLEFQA"}
{"substance": "MAVS (from UniProt Q7Z434)", "values": [{"measurement": "Kd", "result": 950, "unit": "nM"}]}
